# Laboratory results: US11001824
# T1: denatured bovine pancreatic Ribonuclease B, P61823
# T1 chain: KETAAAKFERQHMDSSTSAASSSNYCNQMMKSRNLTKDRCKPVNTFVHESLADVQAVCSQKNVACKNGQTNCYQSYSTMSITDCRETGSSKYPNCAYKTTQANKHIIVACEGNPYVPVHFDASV
# B1: wild-type PNGase F from Flavobacterium meningosepticum (protein)
# chain: GIPAPADNTVNIKTFDKVKNAFGDGLSQSAEGTFTFPADVTAVKTIKMFIKNECPNKTCDEWDRYANVYVKNKTTGEWYEIGRFITPYWVGTEKLPRGLEIDVTDFKSLLSGNTELKIYTETWLAKGREYSVDFDIVYGTPDYKYSAVVPVVQYNKSSIDGVPYGKAHTLALKKNIQLPTNTEKAYLRTTISGWGHAKPYDAGSRGCAEWCFRTHTIAINNSNTFQHQLGALGCSANPINNQSPGNWTPDRAGWCPGMAVPTRIDVLNNSLIGSTFSYEYKFQNWTNNGTNGDAFYAISSFVIAKSNTPISAPVVTNLDPHHHHHH
# B2: PNGase F D60A single point mutant (protein)
# chain: GIPAPADNTVNIKTFDKVKNAFGDGLSQSAEGTFTFPADVTAVKTIKMFIKNECPNKTCDEWARYANVYVKNKTTGEWYEIGRFITPYWVGTEKLPRGLEIDVTDFKSLLSGNTELKIYTETWLAKGREYSVDFDIVYGTPDYKYSAVVPVVQYNKSSIDGVPYGKAHTLALKKNIQLPTNTEKAYLRTTISGWGHAKPYDAGSRGCAEWCFRTHTIAINNSNTFQHQLGALGCSANPINNQSPGNWTPDRAGWCPGMAVPTRIDVLNNSLIGSTFSYEYKFQNWTNNGTNGDAFYAISSFVIAKSNTPISAPVVTNLDPHHHHHH
# Biological target: T1, denatured bovine pancreatic …
Protein,Deglycosylation Activity on RNase B (gel shift assay) [%],N-glycanase activity assay (gel shift)
B1,100,PNGase F completely de-glycosylates 1 µg of RNase B under the assay conditions described
B2,13.4,–
